Source: patent US20200316217A1 (CHILDREN S MEDICAL CENTER, published 2020)
One block for each binder: values may come before it. Ends that are not written are not given here.

Experiments:
human PTHR2 = target: T1, human PTHR2 (human, UniProt P49190 25-550); experiment: flow cytometry, AlexaFluor647-VHH on stably transfected HEK293 cells
T1 construct: whole, on cells; Stably expressed on HEK293 cells; also called hPTHR2
Protocol: (§1) FIGS. 14A-14B: Binding of VHHs to HEK293 cell lines stably transfected with PTHRs. (FIG. 14A) Analysis of VHH binding to PTHR1, PTHR2 and variants by flow cytometry. HEK293 cell lines in suspension were incubated on ice with 100 nM VHH sortagged with Alexafluor647, pelleted by centrifugation, washed and analyzed. Data for PTHR1-GFP is found in FIGS. 17A to 17C. (FIG. 14B) Analysis of VHH binding with microscopy. […] Following staining, cells were washed and treated with fixative in preparation for image acquisition either immediately after staining (0 m) or following a 15-minute incubation in medium at room temperature (15 m).
(§2) Suspensions of cells in PBS were stained for 1 hour on ice in the presence of indicated concentrations of VHH probes functionalized with Alexafluor647. Cells were pelleted by centrifugation and washed with PBS prior to analysis by flow cytometry (BD Accuri C6). Gating was performed on forward scatter/side scatter profiles to analyze intact cells. Data was analyzed using FlowJo version 7.6. The median fluorescent intensity (MFI) of stained cells was used to generate VHH binding dose response curves (FIG. 20).
(§3) It was determined whether VHHs bound to their intended targets on live cells by flow cytometry (FIG. 14A).

PTHR16E [1] = target: T2, PTHR16E (human, UniProt Q03431 27-593); experiment: flow cytometry, AlexaFluor647-VHH titrated on HEK293 cells expressing the receptor (MFI)
T2 construct: Stably expressed on HEK293 cells; also called hPTHR16E
T2 chain: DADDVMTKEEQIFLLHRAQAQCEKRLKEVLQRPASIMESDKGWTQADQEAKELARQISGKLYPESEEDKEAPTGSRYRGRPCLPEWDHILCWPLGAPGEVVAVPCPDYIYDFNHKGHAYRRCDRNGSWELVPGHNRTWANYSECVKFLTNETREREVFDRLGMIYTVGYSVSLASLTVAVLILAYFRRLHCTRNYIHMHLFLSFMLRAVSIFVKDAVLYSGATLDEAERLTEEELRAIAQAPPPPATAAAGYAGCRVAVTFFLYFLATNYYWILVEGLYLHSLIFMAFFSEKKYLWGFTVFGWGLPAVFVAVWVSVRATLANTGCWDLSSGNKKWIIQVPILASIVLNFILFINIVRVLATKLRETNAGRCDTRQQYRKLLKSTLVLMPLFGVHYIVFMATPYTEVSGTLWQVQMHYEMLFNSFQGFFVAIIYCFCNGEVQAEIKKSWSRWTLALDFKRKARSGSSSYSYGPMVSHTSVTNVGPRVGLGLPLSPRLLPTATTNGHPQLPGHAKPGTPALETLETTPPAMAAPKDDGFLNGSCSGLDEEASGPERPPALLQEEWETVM
Protocol: as §2
(§4) It was determined whether VHHs bound to their intended targets on live cells by flow cytometry (FIG. 14A). […] To estimate the affinity of the selected VHH for their targets flow cytometry was used to quantify binding.

PTHR1GFP = target: T3, PTHR1GFP (human, UniProt Q03431 95-593); experiment: flow cytometry, AlexaFluor647-VHH titrated on HEK293 cells expressing the receptor (MFI); plateau estimated
T3 construct: Human PTHR1 with the pH-sensitive GFP variant pHluorin2 inserted in the exon 2 portion; Stably expressed on HEK293 cells (GPG10); also called hPTHR1-GFP; hPTHR1GFP
Protocol: as §2, §4

Human PTHR1 WT = target: T4, Human PTHR1 WT (human, UniProt Q03431 27-593); experiment: as above
T4 construct: Stably expressed on HEK293 cells (GP2.3); also called hPTHR1; wild-type PTHR1
T4 sequence: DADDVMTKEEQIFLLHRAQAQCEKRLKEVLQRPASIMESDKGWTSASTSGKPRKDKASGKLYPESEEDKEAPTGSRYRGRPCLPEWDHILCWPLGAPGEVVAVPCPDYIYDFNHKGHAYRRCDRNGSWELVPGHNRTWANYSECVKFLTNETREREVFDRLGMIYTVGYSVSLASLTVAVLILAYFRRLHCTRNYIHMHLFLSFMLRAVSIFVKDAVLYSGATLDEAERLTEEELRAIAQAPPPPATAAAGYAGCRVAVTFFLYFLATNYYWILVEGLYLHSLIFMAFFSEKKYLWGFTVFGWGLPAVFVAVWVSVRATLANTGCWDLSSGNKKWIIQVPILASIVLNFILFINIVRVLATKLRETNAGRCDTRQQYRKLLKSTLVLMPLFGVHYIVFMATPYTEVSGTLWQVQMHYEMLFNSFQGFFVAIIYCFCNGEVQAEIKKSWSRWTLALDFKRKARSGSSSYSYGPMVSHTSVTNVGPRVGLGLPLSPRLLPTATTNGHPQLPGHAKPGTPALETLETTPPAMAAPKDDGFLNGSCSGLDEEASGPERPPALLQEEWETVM
Protocol: as §2, §4

PTHR16E [2] = target: T2, PTHR16E; experiment: as above
Protocol: as §2, §4

rat PTHR1 [3] = target: T5, rat PTHR1 (rat, UniProt P25961 27-591); experiment: as above
T5 construct: whole, on cells; Stably expressed on HEK293 cells (GR35); also called rPTHR1
T5 sequence (looked up): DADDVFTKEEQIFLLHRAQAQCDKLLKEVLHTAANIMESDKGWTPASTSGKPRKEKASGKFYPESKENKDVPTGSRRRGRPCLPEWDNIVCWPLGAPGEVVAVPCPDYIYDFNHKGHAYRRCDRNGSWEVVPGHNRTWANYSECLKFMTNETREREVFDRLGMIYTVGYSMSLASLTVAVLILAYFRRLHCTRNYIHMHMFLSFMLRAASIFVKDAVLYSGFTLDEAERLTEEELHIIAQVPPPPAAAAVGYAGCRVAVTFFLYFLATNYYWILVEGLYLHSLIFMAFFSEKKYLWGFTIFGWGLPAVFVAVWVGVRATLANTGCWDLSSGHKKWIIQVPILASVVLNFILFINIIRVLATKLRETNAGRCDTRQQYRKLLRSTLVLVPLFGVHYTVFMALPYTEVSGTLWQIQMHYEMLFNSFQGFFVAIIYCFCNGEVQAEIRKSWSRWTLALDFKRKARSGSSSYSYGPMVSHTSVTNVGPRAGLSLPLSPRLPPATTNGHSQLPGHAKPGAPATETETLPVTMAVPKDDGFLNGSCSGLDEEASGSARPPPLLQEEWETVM
Protocol: as §2, §4

PTHR1YFPΔECD [4] = target: T6, PTHR1YFPΔECD (human); experiment: flow cytometry, AlexaFluor647-VHH on stably transfected HEK293 cells
T6 construct: PTHR1 in which YFP replaces the entire extracellular domain; Stably expressed on HEK293 cells (GD5); also called Human PTHR1-delNT-YFP; hPTHR1YFPΔECD
Protocol: as §1, §2, §3

PTHR1YFPΔECD [5] = target: T6, PTHR1YFPΔECD; experiment: cell-based or functional assay
rat PTHR1 [6] = target: T5, rat PTHR1; experiment: cell-based or functional assay
PTHR1YFPΔECD [7] = target: T6, PTHR1YFPΔECD; experiment: cell-based or functional assay; remark: listed apart in the source

T1 sequence (P49190 25-550): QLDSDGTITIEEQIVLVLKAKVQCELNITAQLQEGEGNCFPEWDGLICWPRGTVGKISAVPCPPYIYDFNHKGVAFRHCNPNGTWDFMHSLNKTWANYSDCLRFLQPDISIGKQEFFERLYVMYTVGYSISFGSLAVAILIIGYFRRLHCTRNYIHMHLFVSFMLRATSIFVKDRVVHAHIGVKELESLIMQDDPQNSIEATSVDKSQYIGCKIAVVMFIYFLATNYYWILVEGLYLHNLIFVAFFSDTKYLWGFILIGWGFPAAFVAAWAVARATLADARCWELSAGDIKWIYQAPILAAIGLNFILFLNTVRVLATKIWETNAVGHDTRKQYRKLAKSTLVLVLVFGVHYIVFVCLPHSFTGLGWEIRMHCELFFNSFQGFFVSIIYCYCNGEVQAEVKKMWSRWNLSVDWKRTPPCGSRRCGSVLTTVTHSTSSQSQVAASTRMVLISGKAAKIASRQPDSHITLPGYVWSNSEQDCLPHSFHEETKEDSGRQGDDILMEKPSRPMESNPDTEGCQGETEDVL

binding result (human PTHR2): no binding (tested: 100 nM) | EC50 (PTHR16E [1]): < 0.01 µM
B1: VHH6E (VHH)
VHH: QVQLQESGGGLVQPGGSLRLSCAASGFVFENSAMAWYRQAPGKERELIAVIGTTFIKLAESVKGRFTISRDNAKSTVYLQMNNLKPEDTAVYYCSKSGAYWGQGTQVTVSS
modifications: C-terminus sortagged to a GGG-probe (AlexaFluor647, tetramethylrhodamine or biotin-azide)
notes: It recognises a 14-mer from UBC6e; also called VHH05; VHH005

binding result (human PTHR2): no binding (tested: 100 nM)
B2: VHHGFP (VHH)
VHH: QVQLQESGGALVQPGGSLRLSCAASGFPVNRYSMRWYRQAPGKEREWVAGMSSAGDRSSYEDSVKGRFTISRDDARNTVYLQMNSLKPEDTAVYYCNVNVGFEYWGQGTQVTVSS
modifications: C-terminus sortagged to a GGG-probe (AlexaFluor647 or biotin-azide)
notes: also called VHH Enhancer; VHH-enhancer

EC50 (PTHR1GFP): 0.1 to 0.2 µM | EC50 (Human PTHR1 WT): 0.1 to 0.2 µM | EC50 (PTHR16E [2]): 0.1 to 0.2 µM | EC50 (rat PTHR1 [3]): 0.1 to 0.2 µM | binding result (PTHR1YFPΔECD [4]): no binding (tested: 100 nM) | binding result (human PTHR2): no binding (tested: 100 nM)
B3: VHHPTHR (VHH)
VHH: EVQLVESGGGLVQAGGSLRLSCAASGNIFANNIMGWYRQPPGKEREFVAHVSHDGDSMYAVSVKGRFAISRKDATNLYLQMNSLKPEDTAIYFCRLLNIPTQGRMEGFWGQGTQVTVSS
modifications: C-terminus sortagged to a GGG-probe (AlexaFluor647, tetramethylrhodamine or biotin-azide)
notes: The label depends on the assay; also called VHH22A3; 22A3

cAMP induction EC50 (PTHR1YFPΔECD [5]): 0.689 µM | cAMP induction Max (normalized) (PTHR1YFPΔECD [5]): 1 normalized | cAMP induction Max (normalized) (rat PTHR1 [6]): 1 normalized | Stimulation of receptor (cAMP), EC50 (PTHR1YFPΔECD [7]): 0.689 µM
Binder: SVSEIQLMHNLGKHLNSMERVEWLRKKLQDVHNF-NH2 [PTH(1-34)]
